Measurements published in the DeepSol protein solubility set.

assay: soluble on expression in E. coli; label from the status in PepcDB or PDB records

Sequence	soluble on expression in E. coli
AHHHHHHGSKVLVTGFEPFGGEKINPTERIAKDLDGIKIGDAQVFGRVLPVVFGKAKEVLEKTLEEIKPDIAIHVGLAPGRSAISIERIAVNAIDARIPDNEGKKIEDEPIVPGAPTAYFSTLPIKKIMKKLHERGIPAYISNSAGLYLCNYVMYLSLHHSATKGYPKMSGFIHVPYIPEQIIDKIGKGQVPPSMCYEMELEAVKVAIEVALEELL	soluble
DKFNQFINRVLSHEGGYANHPKDPGGETNWGITKRTAQANGYNGSMRAMTREQAISIYRKAFWERYRADQMPEAVAFQFFDACVNHGYGNAARMLQRAAGVPDDGVIGAVSLKAINSLPENDLLLRFNAERLVFYTKLGTFTSFGKGWVRRVAQN	not soluble
RGVAVYVDHVDGDIHPVTYELIGKARELAAKINHPVYAVFIGQNIKDKAEELLHYGVDEVFVYDDAALKYFRIEPYTKAFEDFINKNKPSTILVGATTVGRSLAPRIAARFRTGLTADCTILDMKENTDLVQIRPAFGGNIMAQIINPNNRPQLATVRYKVMNAPVRSEEKKGKITLCSLKDITSNIEVLKVVKKQVEEN	not soluble
MSLQSKTAKLPDNDRNRPLIQTFNDAQQKVWFDDALLHEDPSQCCNPEFWQQNGKVLGSATGRGTTWFVQLQQTQGALRHYRRGGLFGKLVADSYWFTGWEKTRSYQEFMLLNHLRDAGVNVPRPIAARVQKHGLLYKADLLSEKVPNARDLVSILQESPISDELYRKIGREIRKMHDAQVNHTDLNIHNILIDDQEKVWIIDFDKCYVQIGDSWKQGNLKRLKRSFEKEVCKRGINWSLEAFAIISSYKHEEEGHHHHHH	soluble
QTVVTGKVIDSETSEPLIGVSVSTGQGASLRGVTTDMDGGFRFEVPAKSVLTFRCVGYATVTRSIGRGSQEDLGTILLDPQAIGLDEIQVIASVVPKDRMTPVPVSNIRVADIQAASLNVEFPELVKSTPSTYTTKGSGGFGDGRTNVRGFDTYNFGVLINGVPVNGMEDGKVYWSNWSGLMNQASTIQIQRGLGASKLGISSVGGTMNIITKTTDANTGGSAYVGMGNDGLHKESFSISTGMND	not soluble
MYRVFVFDLDGTLLNDNLEISEKDRRNIEKLSRKCYVVFASGRMLVSTLNVEKKYFKRTFPTIAYNGAIVYLPEEGVILNEKIPPEVAKDIIEYIKPLNVHWQAYIDDVLYSEKDNEEIKSYARHSNVDYRVEPNLSELVSKMGTTKLLLIDTPERLDELKEILSERFKDVVKVFKSFPTYLEIVPKNVDKGKALRFLRERMNWKKEEIVVFGDNENDLFMFEEAGLRVAMENAIEKVKEASDIVTLTNNDSGVSYVLERISTDCLDE	soluble
SANLPTVLVTGASGRTGQIVYKKLKEGSDKFVAKGLVRSAQGKEKIGGEADVFIGDITDADSINPAFQGIDALVILTSAVPKMKPGFDPTKGGRPEFIFEDGQYPEQVDWIGQKNQIDAAKVAGVKHIVVVGSMGGTNPDHPLNKLGNGNILVWKRKAEQYLADSGTPYTIIRAGGLLDKEGGVRELLVGKDDELLQTDTKTVPRADVAEVCIQALLFEEAKNKAFDLGSKPEGTSTPTKDFKALFSQVTSRF	soluble
SPSAEERQKEERTAGLNETVPQATDGELPDDKLKGYELGRDEEKESHRQETLGNLYDYFEKKDETREQEISEEAASDGLHPIERSVSRYEETSQMVHSFYEPPAYDYEKEALREELDMIRSELATLKEEKEEEIDHLELLEKSYRMAAKYFPASGDANSRDAYTRSQERPADAPAPKTAVTAERAALPAVELLPEKKAIVSSLDQPMSDSAFIAEYGHKERNFGFRSADVPASSVTRNTLRVVVDRTTTLQHGDFVQLRLLESARLHDLSIPRHTRLMAQARIDGNRMKLHITSIEYGGRIVSVQLSAFDTDGQEGVFIPGSEEVSALKE	not soluble
MREYKVVVLGSGGVGKSALTVQFVTGSFIEKYDPTIEDFYRKEIEVDSSPSVLEILDTAGTEQFASMRDLYIKNGQGFILVYSLVNQQSFQDIKPMRDQIIRVKRYERVPMILVGNKVDLEGEREVSYGEGKALAEEWSCPFMETSAKNKASVDELFAEIVRQMNYAAQPNGDEGCCSACVIL	soluble
SLSPRRLRLLLVDENPTARAVIGRRLSHRHYDVTVVEDGFAAQKTLIIQPSDIILIDMDLQLLPAIGTMEKIRAAHPAGHACIVMIGGASDTPKMIAALDAGADDHIVKPFDFDMLDARLRRVHARAEREG	not soluble
GPPPPPGPPPPPGPPPPPGL	soluble
MGSDKIHHHHHHMLIIKLSAMGDSLCLFPTVRQLALAFPGATIDWLTSNRSNPALFAELPFIRTIFVTPPSLVRALTYLGGWLFRARRYDLTIDYDQYYCISELIAGMSACSAGFRTSLKGTTFSLSVEYDPLLNEKAMFRKLTERVFATYGVSIPDYRAELPELIERFVPSAQLQTLRARLKAQGKPIVGIYPGSGANATFRRWGVGNYVALIERYKDRYAFVLLGGPDERDLQADLKDIDGVFNLIDSMSFKEVAWFLKHTIDLLVGNDGGLLHVAESQAVATVGIFGPALYRKWGSSLERSIGVEKELPCRPCLKNYLGTVPSACCLGTTACLSAISTDDVAQAMHRAVHRIHVVPIAHA	not soluble
MERTVKLRVKVDYSTYSALKEVEKEYREVLEDAINYGLSNKTTSFTRIKAGVYKTEREKHKDLPSHYIYTACEDASERLDSFEKLKKRGRSYTEKPSVRRVTIHLDDHLWKFNLDTISISTKRSRILISPTFPKIFWRYYNTEWRIASEARFRLMKGNVVEFYVIFKRDEPKPYEPKAFIPVDLNENSVSVLINSKPLLLETNTKKITLGYEYRRKAITTGKSTKDREVRRKLKRLRERNKKVDIRRKLAKLIVKEAFESRSAIVLEDLPRRTPEHMIKDVKDKQLRLRIYRSAFSSMKNAIIEKAREFGVPVVLVNPSYTSTVCPIHGANIVYQLDGGDAPRVGVCEKGKEKWHRDVVALYNLARRAGDVSPVPLGSKESHDPPTLSGWLRAKSLHSIMNEHKMIEMKVLEHHHHHH	soluble
MGSDKIHHHHHHMQQNTNVDPQEIAKFERMAETWWDLNGEFKPLHLLNPLRLNYIDQTAGGIFGKKVLDVGCGGGILSESMARIGAIVDGLDMGEEPLEVARLHALETGVSINYVKNTAEAHREDHREYYDVVTCMEMLEHVPDPQSVIQACCDMVKPGGFVFFSTINRNVRSFVETIIGAEYLLKMLPIGTHDHNKFIKPSELIDLVDNTELICKDALGITYNPLTGIFKYTSKVDVNYMIATQKVD	not soluble
MPENVTVIGAGLAGSEATWQLAKRGIHVDLYEMRPKKETPAHETGEFAELVCTNSMRSNQLSNAVGLLKEEMRHLDSLIMKAADMTQVPAGGALAVDRDSFSKYVTDTLKGMDNVTVHEEEIVKIPEDGITIIATGPLTSDALAKQIQAFSGTDSLHFFDAAAPIIAADSIDMDIVYKKSRYDRGEAAYLNCPMSKEQYEKFANELIKAETAQLHGFENSDVFEGCMPIEVMAARGAKTMLFGPLKPVGLEDPHTGETPYAVVQLRQDNAAASMYNIVGFQTHLKFGEQKRVFSMIPGLENARFVRYGKMHRNTYMASPNVLTASYEAKNRPGLFFAGQMTGVEGYVESAGSGLVAGINAAREALGKETVAFPKNTALGSMANYVTTTSAKHFQPMNASFALLPALEGKKIRKKRERHEKISERGLASLDAFKTEVLDLEHHHHHH	soluble
MVDPPGNDDDHGDLDALDFSAAHTNEASPLDALDDYAPVQTDDAEGDLDALHALTERDEEPELELFTVTNPQGSVSVSTLMDGRIQHVELTDKATSMSEAQLADEIFVIADLARQKARASQYTFMVENIGELTDEDAEGSALLREFVGMTLNLPTPEEAAAAEAEVFATRYDVDYTSRYKADD	soluble
MSLKTKFGKCIYISPSGYKVYQNLLYRWLTLGSEAWQTVINRYIPRRPGLHYLQILTLMARKFPNDCCLLGLGGAGIAHLLGAQKTIRSIVAVESSEEVIQIAKKFFMTDLIPHFTITHQNARDFVRENKKTFQHMLLDLYDATHFPDECHSMDFFIHCKKQLTDDGFLAVNLANSQEQWALVQLIKKQFPSNIIIPIKKCANIVVIASKNDNKDLFIKQVRNTNEIKKITWVKDWGYVAEYEGHHHHHH	not soluble
MLSEERVKELLKKLKDLKILVVGDVILDTYLYGNVERISPEAPVPVLEVEGEEFRLGGAGNVAKNLSSLGVETYLCGVVGKDEAGKRLRELIEGNSIRSFLIEDERPTTKKTRVVSRNQQLLRIDWEDRSYISGKALEKILDVIKNLQVDGIIVSDYAKGVITEEVIKTIREKGVFYSVDPRPKHRELYRKAYLMTPNEKELREMSKFEGSVEELGKKLKEELELETLIVTRGEKGMSLFTEKGVKHFPARARKVYDVTGAGDTVIASITAFKLAGATWEECCELGNVCGGIVVGEFGTATVTPEKLLKAVKLNS	not soluble
MAHHHHHHMEDVGGKANCQIEPERKEAVIDTSNWPLLLKNYDKLNVRSSHFTPLPMGNSPYSRNLEEYLKYGIINLDKPSNPSSHEVVSWIRKILRCEKTGHSGTLDPKVTGVLLVCLNRATRLVKSQQESGKEYVCVCKFHSKPKSLEEVKLVLNNFHGAIFQRPPLICAVKRQLRVRTIYDSKLLDFDDANNVCVFWVKCQAGTYIRTLCEHIGLLLGVGAHMQELRRVKSGNMTEYDNMCTLHDILDAQHVYDTTGDESYLRKIITPLEKLLINFPRIVIKDSAVNAICYGAKLTIPGVLRFDNNIDVNSEVVLMTTKGEAVALAIAQMTSSVIATVDHGVVSLTKRVIMDRDTYDVKWGYGTRSMEKKKLILAGLLDKYGKPNEKTPLSWIKSEGYVPKLVGDTAIYTLNTDDGNNNEVPENGKNVVGENNNPVGGSSAFNLSEGENKKKKDGEGAEENDNNAGEQSDSGVVKKKRKKN	not soluble
MGSDKIHHHHHHMGYLKTMVDVMTTEMNAIRCLIDEAGIEYESIVSEIANCEGKVIFMGVGKSAHIGKKLAATFASTGTPSFFVHATEAVHGDLGMIESKDITILISNSGNSMEVVNCIKYIKAIGSKTIAFTSNRNSVLAKECDYALIYPAKDEADHLNLAPTTSSTITLVLGDSIACALSKSSNFGSSDFYKYHPGGSLGEKLKTANNG	not soluble
MGSDKIHHHHHHMDDRPLFGPFARKGSYSRVQVFDHLFADDRFTALYQEIAILPEVDELMLYRRYLQKEDRVLVHGNFSATLFNTLCAEGYDLYLVESELTRIAGIADPYLHRVYGLSNEVVDVMGSHAFNKIILPGTTIARYSRGELLLFFRNIRHLLATDGQLLISIHNADYLRQNVQPIASRRMEDCTLFYGQKVDRDRLIFNTYLKSASDEKVGYVVEHLYETDTLFEFAKLSRYRGRTLYAGKSISILEFDKIG	not soluble
MTKFNWHESAEKKWDSSAEFWNQNSQEMWDSGSRSTIIPFFEQYVKKEAQVLDVGCGDGYGTYKLSSAGYKAVGVDLSEVMIQKGKERGEGPNLSFIKGDLSALPFENEQFESIMAINSLEWTEEPLRALNEIKRVLKKDGYACIAILGPTAKPRENSYLRLYGKDVVCNTMMPWEFEQLAKEQGFKVIDGIGVYKRGVNEKMLGQLPTELQQSLTFLWVFMLKNV	not soluble
MKIVIDLMGADHGVLPIIEGVSRALENKSFSVVLVGDKDKATPFISKELASKVEMIHTQDYIKMEEAATEAIKRKESSIYLGMDILKNGADALISAGHSGATMGLATLRLGRIKGVERPAICTLMPSVGKRPSVLLDAGANTDCKPEYLIDFALMGYEYAKSVLHYDSPKVGLLSNGEEDIKGNTLVKETHKMLKAYDFFYGNVEGSDIFKGVVDVVVCDGFMGNVVLKTTEGVASAIGSIFKDEIKSSFKSKMGALMLKNAFGILKQKTDYAEYGGAPLLGVNKSVIISHGKSNARAVECAIYQAISAVESQVCLRITQAFESLKSQSFESQSDQQDA	not soluble
MSLIIPEKFQHIHRVMNTNIDGNRKVPYALTAIKGVGRRFAFVCCRKADVDVNKRAGELTEEDFDKIVTIMQNPSQYKIPNWFLNRQKDIKDGKTGQLLSTAVDNKLREDLERMKKIRLHRGLRHYWGLRVRGQHTKTTGRKGRTVGVSKKKGG	not soluble
